Among the data in patent publication US20090081211A1 (published 2009) are Kd values, retold here.

As usually defined, the Kd is the equilibrium constant for the complex coming apart. A low value points to a tighter complex.

The assay deals with human C3b (UniProt P01024 23-667; P01024 749-1663). Briefly: SPR. On the technique in general: Surface plasmon resonance follows binding to a sensor surface in real time, without labels.
Chain of human C3b (P01024 other isoform, or with tags, fused parts or gaps, chain 1 of 2): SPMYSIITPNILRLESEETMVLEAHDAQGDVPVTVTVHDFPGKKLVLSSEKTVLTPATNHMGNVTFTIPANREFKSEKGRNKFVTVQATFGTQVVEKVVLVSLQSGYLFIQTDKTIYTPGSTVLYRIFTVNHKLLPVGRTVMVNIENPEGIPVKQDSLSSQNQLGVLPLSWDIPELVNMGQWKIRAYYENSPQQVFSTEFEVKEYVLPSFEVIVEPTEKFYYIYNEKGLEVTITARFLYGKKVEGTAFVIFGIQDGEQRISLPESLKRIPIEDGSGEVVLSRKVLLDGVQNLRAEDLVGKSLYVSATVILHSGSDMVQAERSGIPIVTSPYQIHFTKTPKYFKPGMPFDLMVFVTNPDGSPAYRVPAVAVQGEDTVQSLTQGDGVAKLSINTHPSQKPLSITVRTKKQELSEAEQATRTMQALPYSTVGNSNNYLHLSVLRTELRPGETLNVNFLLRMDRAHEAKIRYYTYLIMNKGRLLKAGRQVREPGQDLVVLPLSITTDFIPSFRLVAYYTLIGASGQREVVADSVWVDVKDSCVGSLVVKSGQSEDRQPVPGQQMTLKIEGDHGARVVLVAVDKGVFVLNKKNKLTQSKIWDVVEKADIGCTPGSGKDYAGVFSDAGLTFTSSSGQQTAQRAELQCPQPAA
Chain of human C3b (P01024 other isoform, or with tags, fused parts or gaps, chain 2 of 2): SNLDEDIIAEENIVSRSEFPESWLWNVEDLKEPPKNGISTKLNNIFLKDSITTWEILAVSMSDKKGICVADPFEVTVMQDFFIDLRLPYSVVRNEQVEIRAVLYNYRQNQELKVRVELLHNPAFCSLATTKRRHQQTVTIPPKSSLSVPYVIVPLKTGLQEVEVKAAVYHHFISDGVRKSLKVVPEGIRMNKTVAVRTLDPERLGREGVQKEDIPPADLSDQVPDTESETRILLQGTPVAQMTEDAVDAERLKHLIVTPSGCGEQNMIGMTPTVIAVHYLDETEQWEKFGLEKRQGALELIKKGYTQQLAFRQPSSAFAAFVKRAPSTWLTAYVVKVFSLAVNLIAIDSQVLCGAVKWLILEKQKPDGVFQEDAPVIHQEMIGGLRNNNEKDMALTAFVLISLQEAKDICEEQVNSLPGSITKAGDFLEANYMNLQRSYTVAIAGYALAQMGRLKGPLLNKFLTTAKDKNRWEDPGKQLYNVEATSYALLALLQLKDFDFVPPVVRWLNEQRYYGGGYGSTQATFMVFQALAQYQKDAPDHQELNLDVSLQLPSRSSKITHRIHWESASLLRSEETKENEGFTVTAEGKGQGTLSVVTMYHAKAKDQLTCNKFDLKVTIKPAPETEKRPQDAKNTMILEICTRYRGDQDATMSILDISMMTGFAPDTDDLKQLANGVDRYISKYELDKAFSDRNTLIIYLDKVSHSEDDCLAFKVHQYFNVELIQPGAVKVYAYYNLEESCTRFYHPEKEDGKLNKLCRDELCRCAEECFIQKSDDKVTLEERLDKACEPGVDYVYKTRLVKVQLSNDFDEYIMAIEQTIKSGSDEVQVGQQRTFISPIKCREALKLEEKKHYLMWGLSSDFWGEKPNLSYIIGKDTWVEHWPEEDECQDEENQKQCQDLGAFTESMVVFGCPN

B1: antibody YW144.2.43.S77 Fab fragment (Fab, V domains shown)
VH: EVQLVESGGGLVQPGGSLRLSCAASGFSFTSSSVSWVRQAPGKGLEWVGLIYPYNGFNYYADSVKGRFTISADTSKNTAYLQMNSLRAEDTAVYYCARNALYGSGGYYAMDYWGQGTLVTVSS
VL: DIQMTQSPSSLSASVGDRVTITCRASQDVSTAVAWYQQKPGKAPKLLIYSASFLYSGVPSRFSGSGSGTDFTLTISSLQPEDFATYYCQQSYATLPTFEQGTKVEIK
On to B1, for which the Kd was determined as 6.47 nM.
